From PMC6503385, “Functional characterization of BmOVOs in silkworm, Bombyx mori”

Target: BmOVO zinc-finger domain (BmOVO-2 C-terminal) (Bombyx mori, UniProt D3YIG7 629-806)
Test: EMSA; 0.02 mg/ml protein, poly dI.dC; LightShift EMSA kit, 20 ul: 1x binding buffer, 1 ul each poly dI.dC, NP-40, KCl, glycerol; 0.75 pM probe; 20 min at room temperature; 6% polyacrylamide gel; pH
Settings: protein: recombinant; tags: 6xHis (pET28a); label: biotin (5' on both strands as printed); blunt

Chain of BmOVO zinc-finger domain (BmOVO-2 C-terminal) (D3YIG7 entry or part of it): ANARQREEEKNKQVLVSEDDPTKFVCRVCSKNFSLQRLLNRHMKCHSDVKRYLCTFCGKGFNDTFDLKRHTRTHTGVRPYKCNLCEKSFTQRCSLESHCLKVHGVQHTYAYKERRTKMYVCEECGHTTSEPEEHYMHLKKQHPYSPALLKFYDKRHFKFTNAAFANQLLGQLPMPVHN

B1: otu-A (CE1) (dsDNA)
DNA 1: GCCCCTAAAATGTACCGTTGTAACTTCTGT
DNA 2: ACAGAAGTTACAACGGTACATTTTAGGGGC
binding result: binds
